Test results reported in patent US20160002357A1 (Pfizer, published 2016).
Numbering of substitutions follows the chain as printed.

B1: 33 EK-DART (P-CAD 33 x CD3-2) (bispecific antibody)
chain 1: QSVLTQPPSVSAAPGQKVTISCSGSSSNIGNNYVSWYQQLPGTAPKLLIYDNNKRPSGIPDRFSGSKSGTSATLGITGLQTGDEADYYCGTWDSSLSAYVFGTGTKVTVLGGGSGGGGEVQLVESGGGLVQPGGSLRLSCAASGFTFNTYAMNWVRQAPGKGLEWVARIRSKYNNYATYYADSVKDRFTISRDDSKNSLYLQMNSLKTEDTAVYYCVRHGNFGNSYVSWFAYWGQGTLVTVSSGGCGGGKVAALKEKVAALKEKVAALKEKVAALKE
chain 2: QAVVTQEPSLTVSPGGTVTLTCRSSTGAVTTSNYANWVQQKPGQAPRGLIGGTNKRAPWTPARFSGSLLGGKAALTITGAQAEDEADYYCALWYSNLWVFGGGTKLTVLGGGGSGGGGQMQLVQSGAEVKKPGASVKVSCKASGYTFTSYGISWVRQAPGQGLEWMGWISAYNGNTNYAQKLQGRVTMTTDTSTSTAYMELRSLRSDDTAVYYCALIGSGVAFDIWGQGTMVTVSSGGCGGGEVAALEKEVAALEKEVAALEKEVAALEK
B2: 178 EK-DART (P-CAD 178 x CD3-2) (bispecific antibody)
chain 1: B1 chain 1 with Y99V, T103G, V107L
chain 2: B1 chain 2 with Q119E, M120V, L216T, G218D, S219T, G220A, V221N
B3: 180 EK-DART (P-CAD 180 x CD3-2) (bispecific antibody)
chain 1: B1 chain 1 with L4V
chain 2: B1 chain 2 with Q119E, M120V, L216T, G218D, S219T, G220A, V221N
B4: 179 EK-DART (P-CAD 179 x CD3-2) (bispecific antibody)
chain 1: B1 chain 1 with S26R, N52S, A98S, Y99W, T103G, V107L
chain 2: B1 chain 2 with Q119E, M120V, L216T, G218D, S219T, G220A, V221N
B5: 35 EK-DART (P-CAD 35 x CD3-2) (bispecific antibody)
chain 1: B1 chain 1 with Y99V, T103G, V107L
chain 2: B1 chain 2 with Q119E, M120V, L216T, G218D, S219T, G220A, V221S
B6: 34 EK-DART (P-CAD 34 x CD3-2) (bispecific antibody)
chain 1: B1 chain 1 with L4V, Y99W, T103G, V107L
chain 2: B1 chain 2 with Q119E, M120V, L216T, G218D, S219T, G220A, V221S
B7: 20 EK-DART (P-CAD 20 x CD3-2) (bispecific antibody)
chain 1: AIQMTQSPSSLSASVGDRVTITCRASQSIGKYLNWYQQIPGKAPKLLIYTASTLQTGVPSRFSGSGSGTDFTLTIVSLQPEDFATYYCQQSFNTPRTFGQGTKVEIKGGGSGGGGEVQLVESGGGLVQPGGSLRLSCAASGFTFNTYAMNWVRQAPGKGLEWVARIRSKYNNYATYYADSVKDRFTISRDDSKNSLYLQMNSLKTEDTAVYYCVRHGNFGNSYVSWFAYWGQGTLVTVSSGGCGGGKVAALKEKVAALKEKVAALKEKVAALKE
chain 2: QAVVTQEPSLTVSPGGTVTLTCRSSTGAVTTSNYANWVQQKPGQAPRGLIGGTNKRAPWTPARFSGSLLGGKAALTITGAQAEDEADYYCALWYSNLWVFGGGTKLTVLGGGGSGGGGEVQLVQSGAEVKKPGASVKVSCKASGYTFTGYYMHWVRQAPGQGLEWMGRINPNSGGTNYAQKFQGRVTMTRDTSISTAYMELSRLRSDDTAVYYCAKGSGSGAFDIWGQGTMVTVSSGGCGGGEVAALEKEVAALEKEVAALEKEVAALEK
B8: LP-DART #4 (bispecific antibody)
chain 1: QAVVTQEPSLTVSPGGTVTLTCRSSTGAVTTSNYANWVQQKPGQAPRGLIGGTNKRAPWTPARFSGSLLGGKAALTITGAQAEDEADYYCALWYSNLWVFGGGTKLTVLGGGGSGGGGEVQLVQSGAEVKKPGASVKVSCKASGYTFTSYGISWVRQAPGQGLEWMGWISAYNGNTNYAQKLQGRVTMTTDTSTSTAYMELRSLRSDDTAVYYCATIDTASAFDIWGQGTMVTVSSGGTGGGEPKSSDKTHTCPPCPAPEAAGAPSVFLFPPKPKDTLMISRTPEVTCVVVDVSHEDPEVKFNWYVDGVEVHNAKTKPREEQYNSTYRVVSVLTVLHQDWLNGKEYKCKVSNKALPAPIEKTISKAKGQPREPQVCTLPPSREEMTKNQVSLWCLVKGFYPSDIAVEWESNGQPENNYKTTPPVLDSDGSFFLYSKLTVDKSRWQQGNVFSCSVMHEALHNHYTQKSLSLSPG
chain 2: QSVLTQPPSVSAAPGQKVTISCSGSSSNIGNNYVSWYQQLPGTAPKLLIYDNNKRPSGIPDRFSGSKSGTSATLGITGLQTGDEADYYCGTWDSSLSAVVFGGGTKLTVLGGGSGGGGEVQLVESGGGLVQPGGSLRLSCAASGFTFNTYAMNWVRQAPGKGLEWVARIRSKYNNYATYYADSVKDRFTISRDDSKNSLYLQMNSLKTEDTAVYYCVRHGNFGNSYVSWFAYWGQGTLVTVSSGGTGGGEPKSSDKTHTCPPCPAPEAAGAPSVFLFPPKPKDTLMISRTPEVTCVVVDVSHEDPEVKFNWYVDGVEVHNAKTKPREEQYNSTYRVVSVLTVLHQDWLNGKEYKCKVSNKALPAPIEKTISKAKGQPREPQVYTLPPCREEMTKNQVSLSCAVKGFYPSDIAVEWESNGQPENNYKTTPPVLDSDGSFFLVSKLTVDKSRWQQGNVFSCSVMHEALHNHYTQKSLSLSPG
notes: also called P-cadherin LP-DART construct #4 (P-CAD 35, CD3-2)

Legend:
[1] = molecular target: T1, human P-cadherin, cell surface expressed (human, UniProt P22223 108-829); test: cell-based or functional assay
[2] = molecular target: T1, human P-cadherin, cell surface expressed; test: cell-based or functional assay; remark: listed apart in the source
[3] = molecular target: T2, cynomolgus monkey P-cadherin ECD (cynomolgus monkey); test: SPR
T2 construct: extracellular domain; also called cyno P-cadherin ECD; Cyno P-cadherin

[4] = molecular target: human P-cadherin expressed on the cell surface (human, UniProt P22223 108-829); test: cell-based or functional assay
Chain of human P-cadherin expressed on the cell surface (P22223 108-829): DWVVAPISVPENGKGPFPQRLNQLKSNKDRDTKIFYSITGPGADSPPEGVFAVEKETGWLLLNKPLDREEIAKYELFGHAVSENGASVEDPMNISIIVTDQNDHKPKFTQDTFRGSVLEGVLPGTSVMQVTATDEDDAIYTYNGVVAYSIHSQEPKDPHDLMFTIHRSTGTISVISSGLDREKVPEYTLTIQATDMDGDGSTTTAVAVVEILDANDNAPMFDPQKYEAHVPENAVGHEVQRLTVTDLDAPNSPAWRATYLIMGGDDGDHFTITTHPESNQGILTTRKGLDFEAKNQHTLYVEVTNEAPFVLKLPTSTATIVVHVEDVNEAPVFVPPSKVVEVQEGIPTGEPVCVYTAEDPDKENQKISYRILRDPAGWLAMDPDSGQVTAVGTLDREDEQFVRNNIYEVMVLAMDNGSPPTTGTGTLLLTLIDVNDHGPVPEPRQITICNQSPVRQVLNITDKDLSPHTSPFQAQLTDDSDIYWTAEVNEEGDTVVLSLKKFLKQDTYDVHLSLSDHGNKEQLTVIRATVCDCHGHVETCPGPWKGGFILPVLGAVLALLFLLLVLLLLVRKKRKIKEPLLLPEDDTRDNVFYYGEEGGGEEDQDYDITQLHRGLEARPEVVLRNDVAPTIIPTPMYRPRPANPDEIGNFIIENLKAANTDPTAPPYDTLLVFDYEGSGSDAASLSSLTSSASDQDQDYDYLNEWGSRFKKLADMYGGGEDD

T1 sequence (P22223 108-829): as above

Row | Binder | T cell directed cytotoxicity EC50, CHO-CDh3 (24 h), LDH release, human PBMC E:T 30:1 [1] [nM] | T cell directed cytotoxicity EC50, H1650 (24 h), LDH release, human PBMC E:T 30:1 [1] [nM] | T cell directed cytotoxicity EC50, H1650 (40 h), LDH release, human PBMC E:T 30:1 [1] [nM] | T cell directed cytotoxicity EC50, H1650 LDH 24 hr 30:1 D41183 [2] [nM] | T cell directed cytotoxicity EC50, HCT116 Luc 48 hr 10:1 D43905 [2] [nM] | Kd [3] [nM] | T cell Cytotoxicity [4] [nM]
1 | B1 | 0.309 | 4.1 | 1.12 |  |  |  | 
2 | B2 |  |  |  | 0.0008 | 0.0018 |  | 
3 | B3 |  |  |  | 0.0016 | 0.0018 |  | 
4 | B4 |  |  |  | 0.0178 | 0.0432 |  | 
5 | B5 | 0.0398 | 0.501 | 0.0532 | 0.102 | 0.205 |  | 
6 | B6 | 0.737 | 5.6 | 1.6 |  |  |  | 
7 | B7 | 169 | 36.4 |  |  |  |  | 
8 | B8 |  |  |  |  |  | 128 | 2.45
